Results published in patent publication US20230050846A1, “TREATMENT OF HEPATIC AND CARDIOVASCULAR DISORDERS” (LIFESEARCH, priority 2019, published 2023).
Blank lines part the entries; values can stand above or below the binder they belong to. Square brackets hold non-standard residues; d marks the D form. Ends that are not written are not given here. * marks the point of attachment. Biotin = O=C1N[C@H]2[C@H](CS[C@H]2CCCCC(=O)*)N1; Palmitoyl = CCCCCCCCCCCCCCCC(=O)*; AEEA = NCCOCCOCC(=O)O

Assays:
[1] = target: Human F1Fo-ATPase purified from HepG2 cells (human); test: SPR (BIAcore T200), single-cycle kinetics; peptide immobilised as ligand on streptavidin chip, F1Fo-ATPase as analyte injected at 31.25, 62.5, 125, 250 and 500 nM
[2] = target: Human F1Fo-ATPase purified from HepG2 cells (human); test: SPR (BIAcore T200), biotinylated peptide immobilised on streptavidin chip, purified F1Fo-ATPase as analyte, single-cycle kinetics
[3] = target: Human F1Fo-ATPase purified from HepG2 cells (human); test: SPR (BIAcore T200), single-cycle kinetics; peptide immobilised as ligand on NTA chip, F1Fo-ATPase as analyte injected at 31.25, 62.5, 125, 250 and 500 nM
[4] = target: Human F1Fo-ATPase purified from HepG2 cells (human); test: SPR (BIAcore T200), His-tagged peptide immobilised on NTA chip, purified F1Fo-ATPase as analyte, single-cycle kinetics

Kd [1]: 3 nM
koff [1]: 6.85e-05 s⁻¹
Kd [2]: 4.45 nM
B1: Formula (II)-Biotin: CH3CO-[SEQ ID NO: 1]-K-[palmitoyl]-AEEAc-K-[biotinyl]-NH2 (peptide)
peptide: Ac-RGAGSIREAGGAFGKREQAEEERYFRAQSREK(Palmitoyl)[AEEA]K(Biotin)-NH2
SMILES: CCCCCCCCCCCCCCCC(=O)NCCCC[C@H](NC(=O)[C@H](CCC(=O)O)NC(=O)[C@H](CCCNC(=N)N)NC(=O)[C@H](CO)NC(=O)[C@H](CCC(N)=O)NC(=O)[C@H](C)NC(=O)[C@H](CCCNC(=N)N)NC(=O)[C@H](Cc1ccccc1)NC(=O)[C@H](Cc1ccc(O)cc1)NC(=O)[C@H](CCCNC(=N)N)NC(=O)[C@H](CCC(=O)O)NC(=O)[C@H](CCC(=O)O)NC(=O)[C@H](CCC(=O)O)NC(=O)[C@H](C)NC(=O)[C@H](CCC(N)=O)NC(=O)[C@H](CCC(=O)O)NC(=O)[C@H](CCCNC(=N)N)NC(=O)[C@H](CCCCN)NC(=O)CNC(=O)[C@H](Cc1ccccc1)NC(=O)[C@H](C)NC(=O)CNC(=O)CNC(=O)[C@H](C)NC(=O)[C@H](CCC(=O)O)NC(=O)[C@H](CCCNC(=N)N)NC(=O)[C@@H](NC(=O)[C@H](CO)NC(=O)CNC(=O)[C@H](C)NC(=O)CNC(=O)[C@H](CCCNC(=N)N)NC(C)=O)[C@@H](C)CC)C(=O)NCCOCCOCC(=O)N[C@@H](CCCCNC(=O)CCCC[C@@H]1SC[C@@H]2NC(=O)N[C@@H]21)C(N)=O

koff [3]: 0.000643 s⁻¹
Kd [4]: 19 nM
B2: Formula (I)-His-tag: CH3CO-[SEQ ID NO: 1]-HHHHHH (peptide)
peptide: Ac-RGAGSIREAGGAFGKREQAEEERYFRAQSREHHHHHH
